Reference: patent US20200317768A1 (published 2020)
Each block holds one binder with its values, some of them ahead of it.

Assays:
GST-hMSTN 101-200aa = molecular target: T1, GST-hMSTN 101-200aa (human, UniProt A1C2U3 101-200 (Pongo pygmaeus entry)); test: Western blot on GST tagged fragments
T1 construct: As GST-hMSTN 1-100aa; also called sixth fragment; not shown: GST tag from the pGEX4.1 vector
T1 sequence: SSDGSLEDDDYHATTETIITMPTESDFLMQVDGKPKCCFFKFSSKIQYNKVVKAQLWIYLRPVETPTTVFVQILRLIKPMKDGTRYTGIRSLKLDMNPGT
Excerpt: (§1) Fragments of the N-terminal propeptide coding region of human latent myostatin were cloned into a pGEX4.1 vector so as to produce GST tagged propeptide fragments of 100 amino acid each, with 80 amino acid overlap (FIG. 22A). Protein expression was induced in transformed BL21 competent cells with Overnight Express Autoinduction System (Merck Millipore) and protein was extracted using the BUGBUSTER® protein extraction reagent (Novagen).

GST-hMSTN 121-220aa = molecular target: T2, GST-hMSTN 121-220aa (human, UniProt A1C2U3 121-220 (Pongo pygmaeus entry)); test: Western blot on GST tagged fragments
T2 construct: As GST-hMSTN 1-100aa; also called seventh fragment; not shown: GST tag from the pGEX4.1 vector
T2 sequence: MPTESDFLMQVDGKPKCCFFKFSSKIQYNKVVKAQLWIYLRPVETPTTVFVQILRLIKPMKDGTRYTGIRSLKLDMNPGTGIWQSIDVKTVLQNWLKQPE
Excerpt: as §1

GST-hMSTN 141-241aa = molecular target: T3, GST-hMSTN 141-241aa (human, UniProt A1C2U3 141-241 (Pongo pygmaeus entry)); test: Western blot on GST tagged fragments
T3 construct: As GST-hMSTN 1-100aa; also called eighth fragment; not shown: GST tag from the pGEX4.1 vector
T3 sequence: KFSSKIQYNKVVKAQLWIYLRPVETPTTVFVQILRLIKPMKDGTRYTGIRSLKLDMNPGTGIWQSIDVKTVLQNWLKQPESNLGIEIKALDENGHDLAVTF
Excerpt: as §1

[1] = molecular target: T4, human FcγRIIb constitutively expressed on MDCK cells (human, UniProt P31994 43-310); test: cell-based or functional assay
T4 sequence (looked up): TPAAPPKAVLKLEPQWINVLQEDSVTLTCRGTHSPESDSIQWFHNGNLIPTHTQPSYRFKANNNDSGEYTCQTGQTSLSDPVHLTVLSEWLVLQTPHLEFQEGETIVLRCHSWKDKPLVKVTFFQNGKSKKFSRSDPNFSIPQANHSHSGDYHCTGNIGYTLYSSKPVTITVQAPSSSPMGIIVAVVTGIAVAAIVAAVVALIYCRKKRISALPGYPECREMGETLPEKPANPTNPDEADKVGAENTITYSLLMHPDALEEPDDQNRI

Human latent myostatin [2] = molecular target: T5, Human latent myostatin (human, UniProt O14793 25-266; O14793 267-375); test: SPR (BIACORE T200), 37 C, pH7.4, avidity condition (capture 185 RU), 1:1 fit; pH 7.4
T5 construct: Biotinylated in the ELISAs; also called human myostatin latent form
T5 sequence 1: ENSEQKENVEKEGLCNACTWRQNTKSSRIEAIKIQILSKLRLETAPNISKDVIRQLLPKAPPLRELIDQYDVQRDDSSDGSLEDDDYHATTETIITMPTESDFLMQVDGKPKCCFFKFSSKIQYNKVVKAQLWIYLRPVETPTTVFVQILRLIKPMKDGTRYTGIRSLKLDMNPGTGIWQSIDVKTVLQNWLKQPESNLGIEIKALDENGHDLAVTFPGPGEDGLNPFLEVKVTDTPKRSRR
T5 sequence 2: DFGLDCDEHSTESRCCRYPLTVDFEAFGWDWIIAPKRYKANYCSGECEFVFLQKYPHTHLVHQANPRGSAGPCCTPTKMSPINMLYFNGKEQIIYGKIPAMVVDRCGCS
Description: (§2) The kinetic parameters of anti-latent myostatin antibodies against human, cynomolgus monkey (cyno), and mouse latent myostatin were assessed at 37° C. at pH7.4 using a BIACORE® T200 instrument (GE Healthcare). ProA/G (Pierce) was immobilized onto all flow cells of a CM4 chip using amine coupling kit (GE Healthcare). Anti-latent myostatin antibody and analytes were prepared in ACES pH7.4 (20 mM ACES, 150 mM NaCl, 1.2 mM CaCl₂), 0.05% TWEEN® 20, 0.005% NaN₃). […] Then human, cyno, or mouse latent myostatin was injected at 3.125 to 50 nM prepared by two-fold serial dilution, followed by dissociation. The sensor surface was regenerated with 25 mM NaOH. Kinetic parameters were determined by processing and fitting the data to a 1:1 binding model using BIACORE® T200 Evaluation software, version 2.0 (GE Healthcare).
(§3) All experimental settings were the same as in Example 7, except that measurements were also performed in ACES pH5.8 buffer in addition to ACES pH7.4 condition. Some antibodies were only measured against human latent myostatin. Antibody capture level was aimed at 185 RU and 18.5 RU, for avidity and affinity assay, respectively. Kinetic parameters were determined using 1:1 Binding fitting using BIACORE® T200 Evaluation software, version 2.0 (GE Healthcare).

[3] = molecular target: T6, Cynomolgus monkey latent myostatin (cynomolgus monkey, UniProt Q95J86 25-266; Q95J86 267-375); test: as above
T6 construct: signal 1-24; also called Cyno latent myostatin
T6 sequence 1: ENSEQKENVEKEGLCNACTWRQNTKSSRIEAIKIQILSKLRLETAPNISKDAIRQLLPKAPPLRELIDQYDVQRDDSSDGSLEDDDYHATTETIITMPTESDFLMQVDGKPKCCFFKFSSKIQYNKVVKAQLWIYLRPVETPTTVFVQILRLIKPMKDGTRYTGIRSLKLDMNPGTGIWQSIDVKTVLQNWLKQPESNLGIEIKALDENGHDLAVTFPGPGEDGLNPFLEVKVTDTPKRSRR
T6 sequence 2: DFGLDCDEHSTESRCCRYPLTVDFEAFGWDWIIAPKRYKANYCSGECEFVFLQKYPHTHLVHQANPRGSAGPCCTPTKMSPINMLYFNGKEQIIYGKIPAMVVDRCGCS
Description: as §2, §3

Mouse latent myostatin [4] = molecular target: T7, Mouse latent myostatin (mouse, UniProt O08689 26-267; O08689 268-376); test: as above
T7 construct: signal 1-24
T7 sequence 1: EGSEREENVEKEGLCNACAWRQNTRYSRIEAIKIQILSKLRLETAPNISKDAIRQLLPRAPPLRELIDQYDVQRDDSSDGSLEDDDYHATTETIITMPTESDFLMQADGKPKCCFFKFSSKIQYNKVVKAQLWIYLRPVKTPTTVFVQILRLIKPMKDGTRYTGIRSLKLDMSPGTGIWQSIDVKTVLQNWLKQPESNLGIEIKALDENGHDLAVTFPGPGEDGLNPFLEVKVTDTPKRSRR
T7 sequence 2: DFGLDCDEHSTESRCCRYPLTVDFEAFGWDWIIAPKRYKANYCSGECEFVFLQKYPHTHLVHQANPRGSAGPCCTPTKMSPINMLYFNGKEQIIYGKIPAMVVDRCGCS
Description: as §2, §3

Human latent myostatin [5] = molecular target: T5, Human latent myostatin; test: SPR (BIACORE T200), 37 C, pH5.8, avidity condition (capture 185 RU), 1:1 fit; pH 5.8
Description: as §2, §3

[6] = molecular target: T6, Cynomolgus monkey latent myostatin; test: as above
Description: as §2, §3

Mouse latent myostatin [7] = molecular target: T7, Mouse latent myostatin; test: as above
Description: as §2, §3

Human latent myostatin [8] = molecular target: T5, Human latent myostatin; test: SPR (BIACORE T200), 37 C, pH7.4, 1:1 fit; title prints avidity, by the text the affinity condition (capture 18.5 RU)
Description: as §2, §3

[9] = molecular target: T6, Cynomolgus monkey latent myostatin; test: as above
Description: as §2, §3

Mouse latent myostatin [10] = molecular target: T7, Mouse latent myostatin; test: as above
Description: as §2, §3

binding result (GST-hMSTN 101-200aa): no binding | binding result (GST-hMSTN 121-220aa): no binding | binding result (GST-hMSTN 141-241aa): no binding
B1: MST1032 (as tested in Example 26) (antibody, V domains shown)
VH: QSLEESGGRLVTPGGSLTVTCRVSGIDLSSYDISWVRQAPGKGLEWIGIISYAGSTYYASWAKGRFTISKTSTTVDLKMTSLTTEDTATYFCARGVPAYSTGGDLWGPGTLVTVSS
VL: AQVLTQTASSVSAAVGGTVTINCQSSQSVYDNNWLSWFQQKPGQPPKLLIYWASTLASGVPSRFKGSGSGTQFTLTISDLECDDAATYYCAGGYGGGLYAFGGGTKVEIK

cell imaging: fluorescence intensity of labelled human latent myostatin taken up as antigen-antibody complex into MDCK cells expressing human FcγRIIb, relative to SG1 [1]: 7.5 fold
B2: MS103240H795-TT14/M103202L1045-SK1 (antibody, human IgG1, kappa)
heavy: QVQLVESGGGLVQPGGSLRLSCAVSGIDLSHDDISWVRQAPGKGLEWVSIISYAGSTYYASWAKGRLTISKDTSKNQVVLTMTNMDPVDTATYYCARGVPAYSHGGDLWGQGTLVTVSSASTKGPSVFPLAPSSKSTSGGTAALGCLVKDYFPEPVTVSWNSGALTSGVHTFPAVLQSSGLYSLSSVVTVPSSSLGTQTYICNVNHKPSNTKVDKKVEPKSCDKTHTCPPCPAPEYLGGDSVFLFPPKPKDVLMISRTPEVTCVVIDVSHEDPEVKFNWYVDGVEVHNAKTKPREEQYNSTYRVVSVLPVLHQDWLNGKEYKCKVSNKALPKPIEKTISKAKGQPREPQVYTLPPSREEMTKNQVSLTCLVKGFYPSDIAVEWESNGQPENNYKTTPPVLDSDGSFFLYSKLTVDKSRWQQGNVFSCSVMHEALHNHYTQKSLSLSP
light: DIVMTQSPATLSLSPGERATLSCTTSQSVYHENWLSWFQQKPGQPPKLLIYWASTLAYGVPSRFSGSGSGTDFTLTISSLQPEDAATYYCAGGYGGGRYAFGQGTKVEIKRTVAAPSVFIFPPSDEQLKSGTASVVCLLNNFYPREAKVQWKVDNALQSGNSQESVTEQDSKDSTYSLSSTLTLSKADYEKHKVYACEVTHQGLSSPVTKSFNRGEC

cell imaging: uptake of labelled antigen-antibody complex into MDCK cells expressing human FcγRIIb, relative to SG1 [1]: 36 fold
B3: MS103240H795-TT33/M103202L1045-SK1 (antibody, human IgG1, kappa)
heavy: QVQLVESGGGLVQPGGSLRLSCAVSGIDLSHDDISWVRQAPGKGLEWVSIISYAGSTYYASWAKGRLTISKDTSKNQVVLTMTNMDPVDTATYYCARGVPAYSHGGDLWGQGTLVTVSSASTKGPSVFPLAPSSKSTSGGTAALGCLVKDYFPEPVTVSWNSGALTSGVHTFPAVLQSSGLYSLSSVVTVPSSSLGTQTYICNVNHKPSNTKVDKKVEPKSCDKTHTCPPCPAPEYLGGDSVFLFPPKPKDVLMISRTPEVTCVVIDVSHEDPEVKFNWYVDGVEVHNAKTKPREEQYNSTYRVVSVLPVLHRDWLNGKEYKCKVSNKALPKPIEKTISKAKGQPREPQVYTLPPSREEMTKNQVSLTCLVKGFYPSDIAVEWESNGQPENNYKTTPPVLDSDGSFFLYSKLTVKKSRWQQGNVFSCSVMHEALHNHYTQKSLSLSP
light: DIVMTQSPATLSLSPGERATLSCTTSQSVYHENWLSWFQQKPGQPPKLLIYWASTLAYGVPSRFSGSGSGTDFTLTISSLQPEDAATYYCAGGYGGGRYAFGQGTKVEIKRTVAAPSVFIFPPSDEQLKSGTASVVCLLNNFYPREAKVQWKVDNALQSGNSQESVTEQDSKDSTYSLSSTLTLSKADYEKHKVYACEVTHQGLSSPVTKSFNRGEC

Kd (Human latent myostatin [2]): 170 pM | koff (Human latent myostatin [2]): 0.000216 s⁻¹ | kon (Human latent myostatin [2]): 1.27e+06 M⁻¹ s⁻¹ | Kd [3]: 165 pM | koff [3]: 0.000197 s⁻¹ | kon [3]: 1.19e+06 M⁻¹ s⁻¹ | Kd (Mouse latent myostatin [4]): 149 pM | koff (Mouse latent myostatin [4]): 0.000217 s⁻¹ | kon (Mouse latent myostatin [4]): 1.45e+06 M⁻¹ s⁻¹ | Kd (Human latent myostatin [5]): 19900 pM | koff (Human latent myostatin [5]): 0.0242 s⁻¹ | kon (Human latent myostatin [5]): 1.22e+06 M⁻¹ s⁻¹ | Kd [6]: 8900 pM | koff [6]: 0.0068 s⁻¹ | kon [6]: 764000 M⁻¹ s⁻¹ | Kd (Mouse latent myostatin [7]): 6150 pM | koff (Mouse latent myostatin [7]): 0.00625 s⁻¹ | kon (Mouse latent myostatin [7]): 1.02e+06 M⁻¹ s⁻¹ | Kd (Human latent myostatin [8]): 788 pM | koff (Human latent myostatin [8]): 0.00129 s⁻¹ | kon (Human latent myostatin [8]): 1.64e+06 M⁻¹ s⁻¹ | Kd [9]: 954 pM | koff [9]: 0.0011 s⁻¹ | kon [9]: 1.15e+06 M⁻¹ s⁻¹ | Kd (Mouse latent myostatin [10]): 713 pM | koff (Mouse latent myostatin [10]): 0.00107 s⁻¹ | kon (Mouse latent myostatin [10]): 1.5e+06 M⁻¹ s⁻¹
B4: MS_M103205H714-SG1/M103202L861-SK1 (antibody, human IgG1, kappa, V domains shown)
VH: QVTLKESGPVLVKPTETLTLTCTVSGIDLSHTDISWVRQAPGKGLEWVGIISYAGSTYYASWAKGRLTISKDTSKNQVVLTMTNMDPVDTATYYCARGVPAYSHGGDLWGQGTLVTVSS
VL: DIVMTQSPATLSLSPGERATLSCTSSQSVYHNNWLSWFQQKPGQPPKLLIYWASTLAYGVPSRFSGSGSGTDFTLTISSLQPEDAATYYCAGGYGGGRYAFGQGTKVEIKR
notes: also called MS1032LO01-SG1; MSLO-01
